According to paper doi:10.1101/2025.11.06.687086 (bioRxiv, 2025):

Columns and labels:
[1] = molecular target: T1, A/USSR/90/1977 (H1N1) HA (Influenza A virus A/USSR/90/1977 (H1N1), UniProt P03453, strain); assay: ELISA; conditions: one partner purified
T1 construct: source: bought: Sino Biological

[2] = molecular target: T2, A/Taiwan/01/1986 (H1N1) HA (Influenza A virus A/Taiwan/1/1986 (H1N1), UniProt F5CU03, strain); assay: ELISA; conditions: one partner purified
T2 construct: source: bought: Sino Biological

[3] = molecular target: A/Beijing/262/1995 (H1N1) HA (Influenza A virus A/Beijing/262/1995 …, UniProt B4UPF7, strain); assay: ELISA; conditions: one partner purified
[4] = molecular target: T3, A/Solomon Islands/3/2006 (H1N1) HA (Influenza A virus A/Solomon …, strain); assay: ELISA; conditions: one partner purified
[5] = molecular target: A/California/07/2009 (H1N1) HA (Influenza A virus A/California/07/2009 …, UniProt C3W5X2, strain); assay: ELISA; conditions: one partner purified
[6] = molecular target: T4, A/Michigan/45/2015 (H1N1) HA (Influenza A virus A/Michigan/45/2015 …, UniProt A0A1J0CXU0, strain); assay: ELISA; conditions: one partner purified
[7] = molecular target: T5, A/Japan/305/1957 (H2N2) HA (Influenza A virus A/Japan/305/1957 …, UniProt P03451, strain); assay: ELISA; conditions: one partner purified
T5 construct: source: Sf9, baculovirus, purified from the supernatant (Ni Sepharose excel, SEC)

[8] = molecular target: A/northern pintail/WA/40964/2014 (H5N8) HA (influenza A virus A/northern …, UniProt A0A0C4WPH5, strain); assay: ELISA; conditions: one partner purified
[9] = molecular target: T4, A/Michigan/45/2015 (H1N1) HA; assay: BLI; conditions: both partners purified
[10] = molecular target: T3, A/Solomon Islands/3/2006 (H1N1) HA; assay: cryo-EM structure; conditions: both partners purified

Measured: binding result

B1: HB31 IgG (antibody, V domains shown)
VH: EVQLLESGGGLVQPGGSLRLSCTVSGFTSSNYDMSWVRQAPGKGLEWVSGISGTGRDTYYADSVKGRFTISRDNSKNTLSLQMNSLRADDTAVYFCARDRPVLRYFDWQPYGLDVWGKGTTVTVSS
VL: QSALTQPPSASGSPGQSVTISCTGTSSDVGGYNYVSWYQQYPSKAPKLMIYEVSKRPSGVPDRFSGSKSGNTASLTVSGLQAEDEADYYCNSYAGSNLYVFGTGTKVTVL
not listed: [9] | [10]
binds: all other assays above

B2: HB34 IgG (antibody, V domains shown)
VH: B1 VH
VL: QSALTQPASVSGSPGQSITISCTGTSSDVGSYNLVSWYQQHPGKAPKLMIYEGSQRPSGVSNRFSGSKSGNTASLTISGLQAEDEADYYCCSYASSTSYVFGTGTKVTVL
not listed: [9] | [10]
binds: all other assays above

B3: HB34 Fab (Fab, V domains shown)
VH: B1 VH
VL: B2 VL
binds: [9] | [10]

B4: HB31 Fab (Fab, V domains shown)
VH: B1 VH
VL: B1 VL
binds: [9] | [10]

B5: FISW84 Fab (Fab, V domains shown)
VH: EVQLLESGGGLVQPGGSLRLSCAASGFTFSSYGMAWVRQAPGKGLEWVSFISATGLSTYFADSVKGRFTISRDTTKNTLYLQMNSLRADDTAVYFCARMRRTMIAFGGNDFWGQGTLVTVSS
VL: EVVMTQSPATLSVSPGEGATLSCRASQSVNTNVAWYQQKPGQAPRLLIYGASTRATGIPARFSGSGSGTEFTLTISTLQSEDFAVYYCQQYSNWPPITFGQGTRLEIK
notes: also called anchor Fab FISW84
binds: [9]

B6: HB315 IgG (antibody, V domains shown)
VH: EVQLLESGGGLAQPGGSLRLSCTASGFTFSNFAMNWVRQAPGKGLEWVSFINSGSGSTYYADSVKGRFTISRDNSENTLFLQMNSLRAEDTAVYYCAKDLGRAIFGLVIPEGAFDIWGQGTMVTVSS
VL: EIVMTQSPSSLSASVGDRVTITCRASQSINNHLNWYQQKPGKAPKLLIYAASSLQSGVPSRFSGSGSGTDFTLTISSLQPADFATYHCQQSYGVPLTFGQGTKVEIK
not listed: [9] | [10]
binds: all other assays above

B7: HB315 Fab (Fab, V domains shown)
VH: B6 VH
VL: B6 VL
binds: [9] | [10]

B8: CR9114 Fab (Fab, V domains shown)
VH: QVQLVQSGAEVKKPGSSVKVSCKSSGGTSNNYAISWVRQAPGQGLDWMGGISPIFGSTAYAQKFQGRVTISADIFSNTAYMELNSLTSEDTAVYFCARHGNYYYYSGMDVWGQGTTVTVSS
VL: QSALTQPPAVSGTPGQRVTISCSGSDSNIGRRSVNWYQQFPGTAPKLLIYSNDQRPSVVPDRFSGSKSGTSASLAISGLQSEDEAEYYCAAWDDSLKGAVFGGGTQLTVL
binds: [9]
